Experimental findings from paper PMC3064781 are described below.

For data set [1], the target named is T1, scNep1 (Emg1) (Saccharomyces cerevisiae, UniProt Q06287 1-252). As to the kind of experiment: 1:1 molar mix.
In data set [2] the target is T1, scNep1 (Emg1). As to the kind of experiment: X-ray crystallography.

B1: 14-base Nep1 RNA (structured_RNA)
RNA: GGGCUUCAACGCCC
Regarding B1, the binding result with scNep1 (Emg1) [1] and with scNep1 (Emg1) [2] was “binds” throughout.
